According to publication doi:10.1101/2020.04.14.041046:

Target: actin filaments (rabbit skeletal muscle actin) (rabbit) (UniProt P68135)
Test: co-sedimentation

Kd	Substance	stoichiometry N
920 nM	calponin-homology actin binding domain of fission yeast IQGAP Rng2 (Rng2CHD) (domain or fragment)	
	Rng2CHD fused with GFP to its N-terminus via a 16-residue linker (GFP-Rng2CHD) (domain or fragment)	1
